Reference: PMC2844890

Assay: infectious virion yield
Conditions: glycan lost; control: WT tetherin

B1: tetherin (BST-2): N65,92A (protein)
parent chain: MASTSYDYCRVPMEDGDKRCKLLLGIGILVLLIIVILGVPLIIFTIKANSEACRDGLRAVMECRNVTHLLQQELTEAQKGFQDVEAQAATCNHTVMALMASLDAEKAQGQKKVEELEGEITTLNHKLQDASAEVERLRRENQVLSVRIADKKYYPSSQDSSSAAAPQLLIVLLGLSALLQ
  other: inhibition of virion release: abolishes
